In the nanobody polyreactivity screen of Harvey et al. (2022):

Assay: yeast display, Sf9 membrane polyspecificity reagent, FACS + sequencing; frameworks hold sequencing errors
Procedure, shortened: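 Galactose induction of a Saccharomyces cerevisiae BJ5465 synthetic nanobody display library ran 36–48 hours. The cells were then stained for 1 hour at 4 °C with 10% biotinylated, detergent-solubilized Sf9 membrane reagent, pulled down on streptavidin microbeads and FACS-sorted into low and high (top ~1%) gates on expression and reagent-binding fluorescence. Labels for polyreactivity follow the gate of origin.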

| Sequence | polyreactivity (PSR sort gate) |
| --- | --- |
| QVQLVESGGGLVQAGGSLRLSCAASGRTFVRYAMGWYRQAPGKEREFVAAITGSGGITYYADSVKGRFTISRDNAKNTVYLQMNSLKPEDTAVYYCAARGGFGRYWYDYWGQGTQVTVSS | high polyreactivity |
| QVQLVESGGGLVQAGGSLRLSCDASGSIFIPYAMGWYRQAPGKERELVAAISGSGTSTNYADSVKGRFTISRDNAKNTVYLQMNSLKPEDTAVYYCAARLPYGYLRSKFYYWGQGTQVTVSS | high polyreactivity |
| QVQLVESGGGLVQAGGSLRLSCAASGRTFGHYAMGWYRQAPGKERELVAAITWTGGRTYYADSVKGRFTISRDNAKNTVYLQMNSLNPEVTAVYYCNTDRSFYYPAEYDYDYWGQGTQVTVSS | low polyreactivity |
| QVQHVESRGGLVQAGGSLRLSCAASGSTFCRYAMGWYRKAPGKEREFVARITYSSGRTYYADSVKGRFTISRDNAKNTVYLQMNSLKPDDTAVYYCAAGDYTRGPCGDYWGQGTQVTVSS | high polyreactivity |
| QVQLVESGGGLDQAGGSLRLICAASGRTFYYNVMGWYRQAPGKERELVAAISTGVSTNYADSVKGRFTISRDNAKNTVYLQMNSQKPEDTAVYYCNSRSYRWYRPVYRYDYWGQGTQVTVSS | high polyreactivity |
| QVQLVESGGGLVQAGGSLRLSCAASGFTFVPYAMGWYRQAPGKERETNADSVKGRFTISRDNAKNTVYLQRNSLKPEDTAVYYCAADVWASRRYDYWGQGTQVTVSS | low polyreactivity |
| QVQLVESGGGLVQAGGSLRLSCAASGFTFYAYAMGWYRQAPGKERELVAVISQSGTRTYYADSVKGRFTISRDNAKNTVYLQMNSLKPEDTAVYYCAADTYSPDREYGYWGQGTQVTVSS | high polyreactivity |
| QVQLVESGGGLVQAGGSLRLSCAASGIIFDINAMGWYRQAPGKERELVAAITTSVDSTYYADSVKGRFTISRDNAKNTVYLQMNSLKPEDTAVYYCAAGPGDSGDDYWGQGTQVTVSS | low polyreactivity |
| QVQLVESGGGLVQAGGSLRLSCAASGSISSVNVMGWYRQAPGKERELVAAISSGTSTHYADSVKGRFTISRDNAKNTVYLQMNSLKPEVTAVYYCNKTSFLVKLDYWGQGTQVTVSS | low polyreactivity |
| QVQLVESGGGLVQAGGSLRLICAASGRIFRYYAMGWYRQAPGKERELVAAISYSGGSTYYADSVKGRFTISRDNEKNTVYLQMNILKPEDTAVYYCNAGSWKSYYSTVRYLTYSMYYWGQGTQVTVSS | high polyreactivity |
| QVQLVESGGGIVQAGGSLRLSCAASGRIFAYYAMGWYRQAPGKERELVAAISTSGGSTYYADSVKGRFTISRDNAKNTVYLQMNSLKPEDTAVYYCAAEFGGGRSTNFDYWGQGTQVTVSS | low polyreactivity |
| QVQLVESGGGLVQAGGSLRLTCAASGRTFTVYAMGGYRQAPGKEREFVAAITERGGSTYYADSVKGRFTISRDNAKNTVYLQMNSLKPEDTAVYYCAAVYYWRPGWYVRFDYWGQGTQVTVSS | low polyreactivity |
| QVQLVESGGGLVQAGGSLRLSCAHSGFIFSLYAMGWYIQAPGKERELVAAISRRGGNTYYADSVKGRFTISRDNGKNTVYLQMNSLKPVDTAVSYCNTGQRYGYDWGQGTQVTVSS | high polyreactivity |
| QVQLVESGGGLVQAGGSLRLSCAASGFNFRKYAMGWYRQAPGKERELVASITSGGGSTYYADSVKGRFTISRDNAKNTVYLQMNSLKPEDTAVYYCAAVAYTGGPRKLGFNYWGQGTQVTVSS | high polyreactivity |
| QVQLVESGGGLVQAGGSLRLSCAASGSTFSPYTMGWYRQAPGKERELVAAITWSGVTTYYADSVKGRFTISRDNAKNTVYLQMNSLKPEDSAVYYCAAGRTRRKFDYWGQGTQVTVSS | low polyreactivity |
| QVQLVESGGGLVHAGGSLRLSCAASGFIFYGNAMGWYRQAPGKERELVAAITWSSGSTYYADSVKGRFTISRYNAKNTVYLQMNSLSPEDTAVYYSNSEWSAKRPYPSRYYFNLGYWGQGTQVTESS | high polyreactivity |
| QVHLVESGGGLVQAGGSLRLSCAASGLTFYSNAMRWYRQAPGKERELVARISTGGSTYADSVKGRFTISRDNAKNTVYLQMNSLKPEDTGVFYCAKLPPRGIDDEYWGQATQVTVSS | low polyreactivity |
| QVQLVESGAGLVQAAASLRLSCAASGRTFIYYSMGWYRQAPGKEREFVAIISWNGTSTNYADSVKGRFTISRDNAKNTVYLQMNSLKPEDTAVYYCAASFWTDYYRYDYWGQGTQVTVSS | low polyreactivity |
| QVQHVESVGGLVQAGGSLRLSCAASASIIYANTMGWYRQAPGKEREFVATITDSGAIKYYADSVKGRFTISRDNAKNTVYLQMNSLKPEDTAVYYCNADSIYSARGWLYGYWGQGTQVTVSS | low polyreactivity |
| QVQLVESGGGLVQAGGSLRLSCAASGLILSSNAMGWYRKAPGQERELVAAITWDGDRTYADSVKGRFTISRDNAKNTVYLQMNSLKPEDTAVYYCAARIGTGVLTGRGANSHMDYWGQGTQVTVSS | low polyreactivity |
| QVQLVESGGGLVQAGGSLRLSCAASGRIFGVNAMGGYRQAPGKERELVAAIFSGGSTYYADSVKGRFTISRDNAKNTVYLQMNSLKPEDTAVYYCAKLYTVAIVWSAYDYWGQGTQVTVSS | low polyreactivity |
| QVQLEESGGGLVQAGGSLRISCAASGSTFWRYTMGWYRQEPGKERELVAAISWSGDGTYYADSVKGRFTISRDNAKNTVYLQMNSLKPEDTAVYYCAAEVYYANGYDYDYWGQGTQVTVSS | low polyreactivity |

| Sequence | polyreactivity (PSR sort gate) |
| --- | --- |
| QVQRVESGGGLFQAGGSLRLSCAASGFIFASYTMGWYRQAPGKERELVAAISRAGSTYYADSVKGRFTITRDNAKNTVYFQMNSLKPEDTAVYYCNAVSWRTSRYDYWGQGTQVTVSS | high polyreactivity |
| QVQLVESGGGLVQAGGSLRLICAASGSTFPTYAMGWYRQAPGKERELVAAIDSSGGNTYYADSVKGRFTISRDNAKNTVYLQMNSLKPEDTEVYYCARESVTYFWYYTPEVDYWGQGTQVTVSS | low polyreactivity |
| QVQLVESGGGLVQAGGSLRLSCAASGSTFPTYAMGWSRQAPGKERELVAAIDWSDGSITYYADSVKGRFTISRDNAKNTVFLQLNSLKPEDTAVYYCAKDYSQYGWRYDYWGQGTQVTVSS | low polyreactivity |
| QVQLVESGGVLVQAGGSLRLSCAASGIIFGRDTMGWYRQAPGKERELVAAITSSGITYYADSVKGRFTFSRDNAKNCVYLQMNSLKPEDTAVYYCIADYSIPGYYWPYDYWGQCTQVTVSS | low polyreactivity |
| QVQLVESGGGLVQAGGSLRLSCAASGGTFQINAMGWYRQAPGKERELVAAISRSGGSTSYADSVKGRFTISRDNAKNTVYLQMNSLKPEDTAVYYCNKRVRATAWYDYWGQGTQVTVSS | high polyreactivity |
| QVQLVESGGGLVHAGGSLRLSCAASGFIFAYYAMGWYRQAPGKERELVAAIDSAGRTTYADSVKGRFTISRDNAKNSVYLQMNSLKPEDTAVYYCAKFTPSVYKLSLQQGYDYWGQGNQVTVSS | high polyreactivity |
| QVQLVESGGGLVQAGGSLRLSCAASGIILDRNAMGWYRQAPGKERELVAAINSIGGSTYYADSVKGRFTISRDTAKNTVYLQMNSLKPEDTAVYYCNVAQRYYGNFFSSRYEYWGQGTQVTVSS | low polyreactivity |
| QVQLEESGGGLDQAGGILRLSFAASGSTIGGYAMGWYSQATGNERELVAAITRSGGRTYYADSVKGRFTISRDNGKNTVYLQMNSLKPEDTAVYYCATLVTNGRYDSWGQGTQVTVSS | high polyreactivity |
| QVQLVESGGGLVQAGGSLRLSCAASGRIFFTNAMGWYRQAPGKERELVATISSSDGSTYYADSVKGRFTISRDNAKNTVYLQMNSLNPEDTAVYYCAALYSFRGSRQYTYKYYYWGQGTQVTVSS | high polyreactivity |
| QVQLVESGGGLVQAGGSLRLSCAASGSTFHTYGLGWYRQAPGKERELVAAIDLSDGSTYYADSVKGRFTISRDNAKNTVYLQMNSLKPADTAVYYCKADYFPKPYRPDDYWGQGTQVTVSS | low polyreactivity |
| QVQLVESGVGLVQAGGSLRLSCAASGSIFVYYAMGWYRPAPGKERELVAAINFRGGNTYYADSVKGRFTISRDNAKNTVYLQMNRLKPEDTAVYYCAADYRWKWIGGARYDYWGQGTQVTVSS | low polyreactivity |
| QVQLVESGGGLVQAGGSLRLSCAASGRIFSAYAMGWYRPAPGKERELVAAISWSGGSTYYADSVKGRFTISRDNAKNTVYLQMNSLKPEDTAVYYCAADYFYTSWYQHDYWGQGTQVTVSS | low polyreactivity |
| QVQLVESGGGLVQAGGSLRLSCAASGRIFNQYCMGWYRQAPGKERELVAAIRSGDSTNYADSVKGRFTISRDNAKNTVYLQMNSLKPEDTAVYYCARDRPGDYAGYDYWGQGTQVTVSS | low polyreactivity |
| QVQLVESGGGKVQAGRSHRLTCAASGSIFYTYPMGWYRQAPGKERELVAAIRSSDGSTYYADSVKGRFTISRDYAKNTVYIQMNSLKSEYTGVYYCAAENIPGEGYYHFEYDYWGQGTQVTVSS | low polyreactivity |
| QVQLVESGGGLVHAVGSHRLSCTASGSTFVAYPMGWYRQAPGKERELVAAITSSGGRTYYADSVKGRFTISRDNSKNTVYLQINSLKPEDTAVYYCAAVTHGRYDWGQGTQVTVSS | high polyreactivity |
| QVQLVESGGGLVQAGGSLRISCAASGSTINRYAMGWYRQAPWKERELVAAINWRGSRTYYADSVKGRFTISRDNAKNTVYLQMNSLKPEDTAVYDCAASLGANGFQGRMYYWGQGTQVTVSS | low polyreactivity |
| QVQLVESGGGLVQAGGSLRLSCAASRSTFYYYAMGWYRQAPGKERELVATISWSGDSTYADSVKGRFTISRDNAKNTVYLQMNRLKPEDTAVYYCATSGDWWGFRYDYLGQGTQVTVSS | low polyreactivity |
| QVQLVESGGGLVQAGGSLRLSCAASGFIFGRNAMGWYRQAPGKERELVAAINWRGGSTYYADSVKGRCTISRDNAKNTVYLQMNSLKPEDTAVYYCAARGPYRYGYDYWGQGTQVTVSS | high polyreactivity |
| QVQLVESGGGLVQAGGSLRLSCAASGSTSTYNAMGWYRQAPGTERELVAAITESGGSTYYADSVKGRFTISRDNAKNTVYLQMNSLKPEDTAVYYCAADQTYTYDYWGQGTQVTVSS | low polyreactivity |
| QVQLVESGGGLVQAGGSLRLSCAASGRTFDWNAMGWYRQAPGKERELVAAITYSGGGTYYADSVKGRFTISRDNAKNTVYLQMNSLKPEDTAVYYCAAGYPGTWSYYYWGQGTQVTVSS | low polyreactivity |
| QVQLVESGGGLVQAGGSLRLSCAASVRIYRPYAMGRYRQAPGKERELVAAISGSGGSTYYADSVKGRFTISRDNAKNTVYLQMNSLKPEDTAVYYCNAAPKWSDYFYPLEYWGQGTQVTVSS | low polyreactivity |
